Where two headings read alike, the source gives them in different places.

The target in assay [1] is T1, pxAM-FLS-SSAS-TB-His (SARS-CoV-2, UniProt P0DTC2 15-1213).
For assay [2], the target named is T1, pxAM-FLS-SSAS-TB-His. This is another data set of the same source.
Assay [3] addresses Brazil, Gamma, pxENB9-FLS-P.1 (SARS-CoV-2, UniProt P0DTC2 15-1213).
The target of assay [4] is India, Delta, pxENB9-FLS-B.1.617.2 (SARS-CoV-2, UniProt P0DTC2 15-1213).
In assay [5] the target is US/CA, Epsilon, pxENB9-FLS-B.1.427 (SARS-CoV-2, UniProt P0DTC2 15-1213).
Assay [6] addresses T1, pxAM-FLS-SSAS-TB-His. The source holds these as a separate data set.

B1: pxEBN4-ACE2-AAA-His (receptor)
chain: QSTIEEQAKTFLDKFNHEAEDLFYQSSLASWNYNTNITEENVQNMNNAGDKWSAFLKEQSTLAQMYPLQEIQNLTVKLQLQALQQNGSSVLSEDKSKRLNTILNTMSTIYSTGKVCNPDAPAECLLLEPGLNEIMANSLDYNERLWAWESWRSEVGKALRPLYEEYVVLKNEMARANHYEDYGDYWRGDYEVNGVDGYDYSRGQLIEDVEHTFEEIKPLYEHLHAYVRAKLMNAYPSYISPIGCLPAHLLGDMWGRFWTNLYSLTVPFGQKPNIDVTDAMVDQAWDAQRIFKEAEKFFVSVGLPNMTQGFWENSMLTDPGNVQKAVCHPTAWDLGKGDFRILMCTKVTMDDFLTAHHEMGHIQYDMAYAAQPFLLRNGANEGFHEAVGEIMSLSAATPKHLKSIGLLSPDFQEDNETEINFLLKQALTIVGTLPFTYMLEKWRWMVFKGEIPKDQWMKKWWEMKREIVGVVEPVPHDETYCDPASLFHVSNDYSFIRYYTRTLYQFQFQEALCQAAKHEGPLHKCDISNSTEAGQKLFNMLRLGKSEPWTLALENVVGAKNMNVRPLLNYFEPLFTWLKDQNKNSFVGWSTDWSPYADGGGSHHHHHHHH
For the molecule B1, the Kd stood at 5.62 nM with pxAM-FLS-SSAS-TB-His [1]; 0.13 nM with pxAM-FLS-SSAS-TB-His [2]; 0.00159 nM in assay [3]; 2.55 nM in assay [4]; 1.3 nM in assay [5]; 0.524 nM in the assay with pxAM-FLS-SSAS-TB-His [6].

Values taken from patent US20240400618A1 (GRIFOLS DIAGNOSTIC SOLUTIONS, published 2024).
